Assay results: US20240261446A1 (UNIVERSIT DE LI GE, published 2024)

Legend:
[1] = target: T1, recombinant biotinylated CD38 (human, UniProt P28907 43-300, biotinylated (sites not given)); assay: BLI
T1 construct: also called biotinylated CD38 antigen; biotin-labelled recombinant CD38 protein
T1 sequence: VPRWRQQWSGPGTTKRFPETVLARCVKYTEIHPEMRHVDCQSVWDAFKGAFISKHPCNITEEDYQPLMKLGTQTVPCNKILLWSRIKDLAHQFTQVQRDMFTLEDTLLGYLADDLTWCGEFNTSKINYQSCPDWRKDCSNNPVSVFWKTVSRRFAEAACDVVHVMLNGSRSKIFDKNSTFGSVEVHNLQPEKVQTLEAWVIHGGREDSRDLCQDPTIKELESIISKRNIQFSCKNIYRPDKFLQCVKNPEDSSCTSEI

[2] = target: T1, recombinant biotinylated CD38; assay: BLI, biotinylated CD38 on streptavidin sensors, 1:1 model
[3] = target: T1, recombinant biotinylated CD38; assay: biolayer interferometry; biotinylated CD38 on streptavidin sensors; 1:1 binding model
Experimental: Next, the ability of the anti-CD38 nanobodies to recognise the biotinylated CD38 antigen was investigated by Biolayer Interferometry (BLI) that allows determination of the binding kinetics parameters. The binding affinities were estimated by testing different concentrations (seven) of nanobodies with BLI. These experiments were realised in a 96-well plate and consisted of different steps. First, recombinant and biotinylated CD38 (10 μg/mL) was loaded on the surface of streptavidin-coupled sensors and washed using a PBS-based buffer (PBS 50 mM pH 7, BSA 0.1%, Tween 0.02%) in order to remove any unbound CD38. Then, biocytin was added to saturate the sensors and to avoid non-specific interactions during the subsequent association step. Afterwards, the nanobodies were diluted at concentrations and brought in contact with the CD38 coated sensors to monitor the association of the nanobodies to the receptors. […] Octet Data Analysis software version 8.0 was used for curve fitting and the determination of the binding parameters, including the KD, using a 1:1 binding model.

[4] = target: T1, recombinant biotinylated CD38; assay: BLI, immobilised CD38 on SA sensors, OctetHTX, conjugate 100 to 20 nM
Experimental: Values are from a serial dilution of conjugate from 100 to 20 nM.

[5] = target: T1, recombinant biotinylated CD38; assay: BLI, biotinylated CD38 on streptavidin sensors, 10 to 150 nM conjugate, 1:1 model
Experimental: First, recombinant and biotinylated CD38 (1 μg/mL) was loaded on the surface of streptavidin-coupled sensors and washed using a PBS-based buffer in order to remove any unbound CD38. Then, biocytin was added to saturate the sensors and to avoid non-specific interactions during the subsequent association step. Afterwards, the nanobodies-PNA1 were diluted at concentrations and brought in contact with the CD38 coated sensors to monitor the association of the nanobodies to the receptors. Finally, the sensors were placed in a fresh buffer in order to measure the dissociation rate of the nanobodies-PNA1 from the receptors. Octet Data Analysis software version 8.0 was used for curve fitting and the determination of the binding parameters, including the KD, using a 1:1 binding model.

[6] = target: T2, human CD38 receptor expressed on cells (RPMI-8226 and other CD38+ cell lines) (human, UniProt P28907 1-300); assay: saturation binding of the radiolabelled nanobody on CD38+ RPMI-8226 cells, 1 hour at 4 °C
T2 construct: Endogenous CD38 of human myeloma and lymphoma cell lines; also called CD38^+ RPMI-8226 cells
T2 sequence: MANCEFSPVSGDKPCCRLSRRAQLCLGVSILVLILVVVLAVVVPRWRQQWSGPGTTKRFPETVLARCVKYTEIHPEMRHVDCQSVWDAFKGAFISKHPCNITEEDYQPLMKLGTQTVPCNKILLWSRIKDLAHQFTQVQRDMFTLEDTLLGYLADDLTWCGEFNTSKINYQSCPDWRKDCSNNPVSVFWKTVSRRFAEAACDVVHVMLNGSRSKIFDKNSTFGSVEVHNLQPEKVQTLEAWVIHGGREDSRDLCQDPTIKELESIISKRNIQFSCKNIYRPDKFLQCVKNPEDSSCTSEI

B1: anti-CD38 nanobody 2F8 (Nb2F8) with C-terminal hexahistidine tag (VHH)
VHH: QVQLVESGGGSVQAGGSLRLSCAASGYTDSDYIMAWFRQAPGKEREVVATIYIGGTYIHYADSVKGRFTISRDNAENTVYLQMNNLKPEDTAMYYCAATKWRPFISTRAAEYNYWGQGTLVTVSS
notes: Produced in E. coli WK6 with a His6 tag and also in an untagged form; The flow cytometry used the His-tagged form (anti-His detection); also called sdAb 2F8
Kd [1]: 1.46 nM
Kd [2]: 0.73 nM
Kd [3]: 0.734 nM

B2: sdAb 2F8 conjugated to the bifunctional chelator DTPA (2F8-DTPA) (VHH)
VHH: B1 VHH
modifications: CHX-A''-DTPA conjugated to the free epsilon-amino groups of lysines (number and positions not stated)
notes: also called Nb2F8-DTPA conjugate
Kd [4]: 1.6 nM
koff [4]: 0.000412 s⁻¹
kon [4]: 258000 M⁻¹ s⁻¹

B3: Nb2F8-PNA1 conjugate (VHH)
VHH: B1 VHH
modifications: the C-terminal GGGSS is continued by the peptide nucleic acid a-g-t-c-t-g-g-a-t-g-t-a-g-t-c (SEQ ID NO: 15) and then E-K(DOTA)-AEEA-E-NH2
notes: Made by Sortase A ligation of PNA1 to Nb2F8-FL-SR-His6 and purified by reverse IMAC; also called nanobody 2F8 coupled with the PNA1
Kd [5]: 13.4 nM

B4: ^111In-DTPA-Nb2F8 (VHH)
VHH: B1 VHH
modifications: CHX-A''-DTPA on lysine epsilon-amino groups (positions not stated), chelating Indium-111
Kd [6]: 16.7 nM
